For data set [1], the target named is T1, TG2 (transglutaminase 2), tag-free (Homo sapiens, UniProt P21980 1-687).
T1 sequence: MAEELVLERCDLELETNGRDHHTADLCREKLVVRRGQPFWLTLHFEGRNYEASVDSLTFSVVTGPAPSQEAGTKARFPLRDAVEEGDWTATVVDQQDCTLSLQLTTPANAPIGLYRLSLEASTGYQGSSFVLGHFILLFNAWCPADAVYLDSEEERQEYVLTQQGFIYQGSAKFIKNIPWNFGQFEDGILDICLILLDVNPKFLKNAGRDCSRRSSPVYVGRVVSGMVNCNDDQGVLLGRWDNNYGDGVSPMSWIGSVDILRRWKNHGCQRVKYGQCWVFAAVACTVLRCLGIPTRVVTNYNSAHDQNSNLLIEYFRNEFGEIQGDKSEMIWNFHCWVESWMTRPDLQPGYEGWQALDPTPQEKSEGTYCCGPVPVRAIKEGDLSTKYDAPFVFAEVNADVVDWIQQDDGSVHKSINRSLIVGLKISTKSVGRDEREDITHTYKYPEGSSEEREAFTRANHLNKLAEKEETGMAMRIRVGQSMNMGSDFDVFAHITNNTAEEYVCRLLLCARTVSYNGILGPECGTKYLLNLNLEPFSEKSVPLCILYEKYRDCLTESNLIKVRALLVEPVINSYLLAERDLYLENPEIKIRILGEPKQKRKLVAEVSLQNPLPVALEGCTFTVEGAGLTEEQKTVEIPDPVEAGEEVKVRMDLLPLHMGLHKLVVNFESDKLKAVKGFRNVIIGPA
The data set can be described thus: BLI. Background: Biolayer interferometry detects binding as a change in optical thickness at a sensor tip.

Data set [2] concerns the target T2, TG2 (transglutaminase 2), His6-tagged (Homo sapiens, UniProt P21980 1-687).
T2 sequence: T1 sequence
The data set can be described thus: pull-down.

B1: 43-mer RNA 3' End Biotin (structured_RNA)
RNA: CCUGGUUUUUAAGGAGUGUCGCCAGAGUGCCGCGAAUGAAAAAC
As for B1, the Kd in data set [1] stood at 88 nM.

B2: poly(dA) 3' End Biotin (ssDNA)
DNA: AAAAAAAAAAAAAAAAAAAAAAAAAAAAAAAAAAAAAAAAAAAAAAAAA
As for B2, the binding result in data set [2] was “no binding”.

B3: poly(dG) 3' End Biotin (ssDNA)
DNA: GGGGGGAGGGGGGAGGGGGGAGGGGGGAGGGGGGAGGGGGGAGGGGGGA
As for B3, in data set [2], the binding result is listed as “binds”.

For orientation: Kd means a measure of binding affinity in units of concentration.

The values are drawn from doi:10.1101/2024.04.26.591323.
